Test results: paper PMC9891525

Each substance was assayed against biotinylated recombinant SARS-CoV-2 wild type spike RBD (UniProt P0DTC2). Settings: n = 2 replicates; parent: est. 100; read off a plot.

With “REGN10987 scFv displayed on the surface of HEK 293T cells N57H” as the substance, how does the percent of parent (Relative fluorescence) read?
The percent of parent (Relative fluorescence) was 120.

How did the percent of parent (Relative fluorescence) turn out when “REGN10987 scFv displayed on the surface of HEK 293T cells D54F” was run?
The percent of parent (Relative fluorescence) was 97.

With “REGN10987 scFv displayed on the surface of HEK 293T cells D54I” as the substance, how does the percent of parent (Relative fluorescence) read?
The percent of parent (Relative fluorescence) was 110.

Which percent of parent (Relative fluorescence) does the source give for “REGN10987 scFv displayed on the surface of HEK 293T cells D54L” here?
Its percent of parent (Relative fluorescence) is 130.

How did the percent of parent (Relative fluorescence) turn out when “REGN10987 scFv displayed on the surface of HEK 293T cells D54Y” was run?
Its percent of parent (Relative fluorescence) is 82.

For “REGN10987 scFv displayed on the surface of HEK 293T cells D54T”, which percent of parent (Relative fluorescence) is on record?
Its percent of parent (Relative fluorescence) is 120.

Which percent of parent (Relative fluorescence) does the source give for “REGN10987 scFv displayed on the surface of HEK 293T cells S97Y” here?
Its percent of parent (Relative fluorescence) is 150.

Each substance was assayed against biotinylated recombinant SARS-CoV-2 wild type spike RBD (UniProt P0DTC2). Settings: n = 2 replicates; parent: est. 110; read off a plot.

With “REGN10987 scFv displayed on the surface of HEK 293T cells S97Y; D54Y; N57H” as the substance, how does the percent of parent (Relative fluorescence) read?
Its percent of parent (Relative fluorescence) is 160.

Which percent of parent (Relative fluorescence) does the source give for “REGN10987 scFv displayed on the surface of HEK 293T cells S97Y; D54T” here?
Its percent of parent (Relative fluorescence) is 220.

Which percent of parent (Relative fluorescence) does the source give for “REGN10987 scFv displayed on the surface of HEK 293T cells S97Y; D54F” here?
Its percent of parent (Relative fluorescence) is 100.

For “REGN10987 scFv displayed on the surface of HEK 293T cells S97Y; D54L”, which percent of parent (Relative fluorescence) is on record?
Its percent of parent (Relative fluorescence) is 220.

Which percent of parent (Relative fluorescence) does the source give for “REGN10987 scFv displayed on the surface of HEK 293T cells S97Y; D54F; N57H” here?
Its percent of parent (Relative fluorescence) is 110.

“REGN10987 scFv displayed on the surface of HEK 293T cells S97Y; D54T; N57H” was tested. Which percent of parent (Relative fluorescence) did it give?
Its percent of parent (Relative fluorescence) is 240.

How did the percent of parent (Relative fluorescence) turn out when “REGN10987 scFv displayed on the surface of HEK 293T cells S97Y; N57H” was run?
Its percent of parent (Relative fluorescence) is 200.

“REGN10987 scFv displayed on the surface of HEK 293T cells S97Y; D54Y” was tested. Which percent of parent (Relative fluorescence) did it give?
Its percent of parent (Relative fluorescence) is 130.

For “REGN10987 scFv displayed on the surface of HEK 293T cells S97Y; D54I”, which percent of parent (Relative fluorescence) is on record?
Its percent of parent (Relative fluorescence) is 220.

What follows are substances tested against biotinylated recombinant SARS-CoV-2 wild type spike RBD (UniProt P0DTC2). Settings: n = four independent experiments; read off a plot.

How did the enrichment turn out when “REGN10987 scFv displayed on the surface of HEK 293T cells D54I” was run?
Its enrichment is 3.2 log2(FC).

Molecular target: biotinylated recombinant SARS-CoV-2 wild type spike RBD (UniProt P0DTC2)
Settings: n = 2 replicates; parent: est. 100; read off a plot
Remark: another data set of the same source

“REGN10987 scFv displayed on the surface of HEK 293T cells L106N; N57F” was tested. Which percent of parent (Relative fluorescence) did it give?
Its percent of parent (Relative fluorescence) is 120.

For “REGN10987 scFv displayed on the surface of HEK 293T cells L106N; N57T”, which percent of parent (Relative fluorescence) is on record?
Its percent of parent (Relative fluorescence) is 130.
